Measurements taken from patent EP4814000A1.
Like-named read-outs stand apart in the source and are kept apart here.

What was measured:
[1] = target: 003m-P215S (RSV); assay: flow cytometry, Expi293F cells, Lipofectamine 2000-mRNA
[2] = target: 003m-P215S-2×GCN4t (RSV); assay: as above
[3] = target: 003m-P215S (RSV); assay: as above; remark: listed apart in the source
[4] = target: 003m-P215S-1×GCN4t (RSV); assay: as above
[5] = target: 003m-P215S-S-3N; assay: as above
[6] = target: 003m-P215S-ΔF111 (RSV); assay: as above
[7] = target: 003m-P215S-ΔF111-1×GCN4t (RSV); assay: as above
[8] = target: 003m-P215S-ΔF111-S-3N; assay: as above
[9] = target: 003m-P215S-1×Fibritin (RSV); assay: as above
[10] = target: 003m-P215S-1×Fibritin-1N (RSV); assay: as above
[11] = target: 003m-P215S-1×GCN4t (RSV); assay: as above; remark: listed apart in the source
[12] = target: 003m-P215S-1×GCN4t-1,2,3N; assay: as above
[13] = target: 003m-P215S-1×GCN4t-1,2N; assay: as above
[14] = target: 003m-P215S-1×GCN4t-1,3N; assay: as above
[15] = target: 003m-P215S-1×GCN4t-1N; assay: as above
[16] = target: 003m-P215S-1×GCN4t-2,3N; assay: as above
[17] = target: 003m-P215S-1×GCN4t-2N; assay: as above
[18] = target: 003m-P215S-1×GCN4t-3N; assay: as above
[19] = target: 003m-1×GCN4t (RSV); assay: flow cytometry, Expi293F cells transfected with the antigen's mRNA
[20] = target: 003m-2×GCN4t (RSV); assay: as above
[21] = target: DS-Cav1 (RSV); assay: as above
[22] = target: DS-Cav1-1×GCN4t (RSV); assay: as above
[23] = target: DS-Cav1-2×GCN4t (RSV); assay: as above
[24] = target: 003m-P215S-ΔF111-1×GCN4t (RSV); assay: flow cytometry, Expi293F cells, mRNA-LNP (RL151); row 003m-P215S-ΔF111-1×GCN4t

| Substance | MFI [1] | MFI [2] | MFI [3] | MFI [4] | MFI [5] | MFI [6] | MFI [7] | MFI [8] | MFI [9] | MFI [10] | MFI [11] | MFI [12] | MFI [13] | MFI [14] | MFI [15] | MFI [16] | MFI [17] | MFI [18] | MFI [19] | MFI [20] | other results |
| --- | --- | --- | --- | --- | --- | --- | --- | --- | --- | --- | --- | --- | --- | --- | --- | --- | --- | --- | --- | --- | --- |
| AM14-AF488 (antibody) | 338000 | 2680 | 759000 | 5650 | 127000 | 1.52e+06 | 12500 | 1.08e+06 | 22300 | 242000 | 4870 | 89600 | 58400 | 71000 | 37400 | 39100 | 28800 | 25100 | 6550 | 434000 | MFI [21]: 108000; MFI [22]: 923; MFI [23]: 437; MFI [24]: 821 |
| D25-AF488 (antibody) | 270000 | 5120 | 486000 | 8630 | 148000 | 1.02e+06 | 14700 | 704000 | 23000 | 235000 | 10400 | 147000 | 100000 | 122000 | 59400 | 70700 | 54000 | 43400 | 12100 | 173000 | MFI [21]: 145000; MFI [22]: 1790; MFI [23]: 1170; MFI [24]: 682 |
